In paper PMC9549385 one finds Emax of ERK1/2 phosphorylation (% of SNC80 maximum, In-Cell Western) in CHO-K1-hDOPr cells, 5 min stimulation data, which are given here for one substance.

The test concerns the target human delta-opioid receptor (human) (UniProt P41143).

[D-Ala2, D-Leu5]-enkephalin (peptide): the Emax of ERK1/2 phosphorylation (% of SNC80 maximum, In-Cell Western) in CHO-K1-hDOPr cells, 5 min stimulation stood at 36 % SNC80.
